Laboratory results taken from PMC7452893 (Nature Communications, 2020).
Substitutions are numbered along the chain they refer to.

B1: MD17 (antibody, V domains shown)
VH: EVQLLESGGGLVQPGGSLRLSCSASGFTFSTYVMNWVRQAPGKGLEHVSGISSDGGITYYADSVKGRFTISRDNSKNTLYLQMSSLRVEDTAVYYCVKDQDSSSWYDAFDIWGQGTMVTVSS
VL: DIVMTQSPSSLSASVGDRVTITCRASQSISNYLNWYQQKLGKAPKLLTYAASRLQSGVPSRFSASGSGTEFTLTISSLQPEDFATYYCQQSYTTPLTFGGGTKLEIK
notes: scFv-Fc format; also called MD17 scFv-Fc
B2: MD29 (antibody, V domains shown)
VH: B1 VH with E1Q, V2M, L5V, E6Q, L45P
VL: NIRLTQSPSSLSASVGDRVTITCRATQSISSYLNWYQQKPGKAPNLLIYAASSLQSGVPSRFSGSGSGTDFTLTISSLQPEDFATYYCHQTYTSPYTFGQGTKLEIK
notes: scFv-Fc format; also called MD29 scFv-Fc
B3: MD67 (antibody, V domains shown)
VH: EVQLVESGGGLVQPGGSLRLSCAASGFTVSSNYMTWVRQAPGKGLEWVSVIYSGGSTFYADSVKGRFTISRHNSKNTLYLQMNSLRAEDTAVYYCARDLSVRGGMDVWGQGTTVTVSS
VL: not shown
notes: scFv-Fc format; also called MD67 scFv-Fc
B4: MD47 (antibody, V domains shown)
V domain 1: QMQLVQSGGGLVQPGGSLRLSCAASGFTFSSYAMSWVRQAPGKGLEWVSAISSGGSTYYADSVKGRFTISRDNSKNTLYLQMNSLRAEDTAVYYCAKDLVTAPSYEAFDIWGQGTMITVSS
V domain 2: NFMLTQPPSVSVAPGKTARITCGGNNIGSKSVHWYQQKPGQAPVLVIYYDSDRPSGIPERFSGSNSGNTATLTISRVEAGDEADYYCQVWDSSSHHHVVFGGGTKGTVL
notes: scFv-Fc format; also called MD47 scFv-Fc
B5: MD62 (antibody, V domains shown)
VH: EVQLVQSGGGLIQPGGSLRLSCAASGVTVSSNYMTWVRQAPGKGLEWVSLIYSGGSTYYADSVKGRFTISRDNSKNTLYLQMNSLRAEDTAVYYCARDLQYYGMDVWGQGTMVTVSS
VL: AIRMTQSPSSVSASVGDRVTITCRASQDIGSWLGWYQQKPGKAPKLLIYAASSLAGGVPSRFSGSGSGTDFTLTISSLQPEDFATYYCQQANSFPLTFGGGTKLEIK
notes: scFv-Fc format; also called MD62 scFv-Fc

Tests used:
Conditions in all cases: both partners purified
[1] = target: T1, SARS-CoV-2 spike glycoprotein, soluble (amino acids 1-1207) (SARS-CoV-2, Wuhan-Hu-1 (QHD43416), UniProt P0DTC2, proline substitution at position 986 | proline substitution at position 987 | …); assay: ELISA; direct ELISA; plates coated with 2 μg/ml recombinant spike, S1, RBD or NTD; scFv-Fc detected with AP-conjugated anti-human IgG; specificity panel (Fig. 1c)
T1 construct: also called spike protein

[2] = target: T2, SARS-CoV-2 spike receptor-binding domain (RBD), monomeric (SARS-CoV-2, UniProt P0DTC2); assay: BLI; Octet; biotinylated scFv-Fc on streptavidin sensors; increasing concentrations of monomeric RBD, 300 s association, 600 s dissociation; 30 °C; 1:1 binding model
T2 construct: Called monomeric RBD in the BLI methods; Amino acids 1-15 are probably removed on secretion (surmise); also called monomeric RBD

[3] = target: T2, SARS-CoV-2 spike receptor-binding …; assay: ELISA; direct ELISA; plates coated with 2 μg/ml recombinant spike, S1, RBD or NTD; scFv-Fc detected with AP-conjugated anti-human IgG; specificity panel (Fig. 1c)

Row | Binder | binding result [1] | Kd [2] [nM] | binding result [3]
1 | B1 | binds | – | –
2 | B2 | binds | 0.4 to 5.8 | –
3 | B3 | – | 0.4 to 5.8 | –
4 | B4 | – | – | binds
5 | B5 | binds | – | –
